US20020037853A1
No end group written: not given here.

What was measured:
[1] = molecular target: cell surface receptors for collagen on human dermal fibroblasts; assay: attachment of fibroblasts to collagen-coated dishes, peptide in the medium at 35 × 10^-6 M; competitor collagen
[2] = molecular target: cell surface receptors for collagen on human dermal fibroblasts; assay: cell-binding activity relative to the inventive peptide of Examples 1 and 2
[3] = molecular target: cell surface receptors for collagen on human dermal fibroblasts; assay: cell-binding activity relative to the SEQ ID NO:1 peptide
[4] = molecular target: cell surface receptors for collagen on human dermal fibroblasts; assay: fibroblast attachment to coated coverslips, 15 min
[5] = molecular target: cell surface receptors for collagen on human dermal fibroblasts; assay: various other similar cell attachment studies on glass or polystyrene
[6] = molecular target: cell surface receptors for collagen on human dermal fibroblasts; assay: fibroblast attachment to coated coverslips, 15 min; reference collagen
[7] = molecular target: cell surface receptors for collagen on human dermal fibroblasts; assay: attachment of fibroblasts to collagen-coated dishes, peptide in the medium at 36 × 10^-6 M; competitor collagen
[8] = molecular target: cell surface receptors for collagen on human dermal fibroblasts; assay: attachment of fibroblasts to collagen-coated dishes, peptide in the medium at 7.2 × 10^-6 M; competitor collagen
[9] = molecular target: cell surface receptors for collagen on human dermal fibroblasts; assay: about 100,000 human fetal dermal fibroblasts on coated glass coverslips, 15 min, attached cells counted; uncoated control 7.01
[10] = molecular target: cell surface receptors for collagen on human dermal fibroblasts; assay: attachment of fibroblasts to collagen-coated dishes, polyproline in the medium at 1.7 × 10^-6 M; competitor collagen
[11] = molecular target: cell surface receptors for collagen on human dermal fibroblasts; assay: biological (cell-binding) activity relative to P-15; assay not described there

## Dynorphin 1-13 (from UniProt P01213 207-219) (peptide)
[1]
  % Inhibition of Cell Attachment: 19%
  % of Maximal Cell Attachment: 81%

## FGIAGF (SEQ ID NO:5)
[2]
  Relative Cell-Binding Activity (% relative to the SEQ ID NO:1 peptide): 87

## GPQGIAGQR (SEQ ID NO:2)
[2]
  Relative Cell-Binding Activity (% relative to the SEQ ID NO:1 peptide): 100

## Gln-Gly-Ile-Ala-Gly (SEQ ID NO:8) (peptide)
[3]
  cell-binding activity relative to the SEQ ID NO:1 peptide: 42%

## Gly-Ile-Ala-Gly-Gln (SEQ ID NO:6) (peptide)
[2]
  Relative Cell-Binding Activity (% relative to the SEQ ID NO:1 peptide): 70

## Inventive peptide Gly-Thr-Pro-Gly-Pro-Gln-Gly-Ile-Ala-Gly-Gln-Arg-Gly-Val-Val (SEQ ID NO:1)
[4]
  increase in cell binding over the control (no collagen or peptide): 60%
[5]
  potency in binding cells relative to collagen (fold over collagen): 2
[6]
  increase in cell binding over collagen-coated dishes: 40%
[7]
  % Inhibition of Cell Attachment: 88%
  % of Maximal Cell Attachment: 12%
[8]
  % Inhibition of Cell Attachment: 85%
  % of Maximal Cell Attachment: 15%
[9]
  Concentration of Cells (relative binding of cells after 15 minutes): 11.1

## Polyproline (peptide)
[10]
  % Inhibition of Cell Attachment: 10%
  % of Maximal Cell Attachment: 90%

## QGAIAQ (SEQ ID NO:7)
[2]
  Relative Cell-Binding Activity (% relative to the SEQ ID NO:1 peptide): 70

## QGIAGQ (SEQ ID NO:3)
[2]
  Relative Cell-Binding Activity (% relative to the SEQ ID NO:1 peptide): 120

## QGIAGQR (SEQ ID NO:4)
[2]
  Relative Cell-Binding Activity (% relative to the SEQ ID NO:1 peptide): 60

## Rat tail tendon collagen (rat tail type I collagen) (from UniProt P02454 152-1207; P02466 86-1125)
[9]
  Concentration of Cells (relative binding of cells after 15 minutes): 8.59

## dipeptide -Ile-Ala-
[11]
  biological activity relative to P-15: 60%

## human preangiotensinogen 1-14 (from UniProt P01019 25-38) (peptide)
[1]
  % Inhibition of Cell Attachment: 12%
  % of Maximal Cell Attachment: 88%
